In assay [1] the target is T1, prefusion-stabilized hMPV F protein (hMPV prefusion F trimer) (human metapneumovirus; subgroup/strain …, stabilised).
T1 chain 1: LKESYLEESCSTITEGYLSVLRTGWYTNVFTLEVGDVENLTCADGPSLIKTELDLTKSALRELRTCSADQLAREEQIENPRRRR
T1 chain 2: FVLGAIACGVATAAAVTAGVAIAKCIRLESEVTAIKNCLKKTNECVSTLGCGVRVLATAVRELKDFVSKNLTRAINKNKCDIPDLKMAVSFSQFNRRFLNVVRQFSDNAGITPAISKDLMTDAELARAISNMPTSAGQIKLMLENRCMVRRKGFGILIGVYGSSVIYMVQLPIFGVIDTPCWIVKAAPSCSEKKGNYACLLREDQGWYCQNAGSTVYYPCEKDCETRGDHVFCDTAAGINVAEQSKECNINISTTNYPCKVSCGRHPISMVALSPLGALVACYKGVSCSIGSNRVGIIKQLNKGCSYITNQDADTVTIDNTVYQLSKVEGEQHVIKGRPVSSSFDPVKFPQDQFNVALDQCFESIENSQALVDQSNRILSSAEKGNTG
In words: cell-based or functional assay.

The target of assay [2] is prefusion-stabilized RSV F protein (RSV prefusion F trimer) (human respiratory syncytial virus A, …, UniProt P03420, stabilised). In words: ELISA. In general terms: An ELISA detects its analyte on a solid surface through an enzyme-linked reagent.
For assay [3], the target named is T2, prefusion-stabilized hMPV F construct hMPV F-DS-CavEs2-IPDS (human metapneumovirus, N-linked glycans (Asn172, Asn57)).
T2 chain: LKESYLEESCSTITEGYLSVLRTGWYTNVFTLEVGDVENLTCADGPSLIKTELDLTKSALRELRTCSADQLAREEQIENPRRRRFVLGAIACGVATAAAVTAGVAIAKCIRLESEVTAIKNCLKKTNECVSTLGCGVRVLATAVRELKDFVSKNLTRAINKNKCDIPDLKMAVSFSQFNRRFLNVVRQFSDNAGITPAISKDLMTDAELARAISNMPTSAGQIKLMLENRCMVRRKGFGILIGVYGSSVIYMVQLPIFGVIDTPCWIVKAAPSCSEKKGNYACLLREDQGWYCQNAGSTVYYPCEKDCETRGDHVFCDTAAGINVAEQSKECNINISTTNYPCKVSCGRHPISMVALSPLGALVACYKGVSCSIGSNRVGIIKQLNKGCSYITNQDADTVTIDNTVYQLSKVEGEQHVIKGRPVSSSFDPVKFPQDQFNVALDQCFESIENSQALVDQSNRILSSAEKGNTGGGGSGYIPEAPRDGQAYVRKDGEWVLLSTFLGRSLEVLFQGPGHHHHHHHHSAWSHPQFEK
Briefly: cryo-EM structure.

The results in this text go back to publication PMC11565947 (bioRxiv, 2024).

B1: monoclonal antibody 5–1 (recombinant human IgG1) (antibody, V domains shown)
VH: QGQLVQSGPEVKKPGATVKVSCRASAYPFGNYGITWVRQVPGQGLEWVGWISAYTGHTKFPQNFQGRVTLTADTSTSTGYMELRSLTSDDTAVYYCARGPCCSSPRPYDIWGQGTMVTVSS
VL: DIQMTQSPSTLSASVGDRVTITCRASQSIDDWLAWYQHSPGKAPKLLIYRASRLESGVPSRFSGSGSGTEFTLTISSLQPDDFASYYCQQCYTYSQTFGQGTRVEIK
Regarding B1, in assay [1], the “PRNT neutralisation of hMPV 97–83 and hMPV TN/93–32, IC50” value is below 10 ng/mL. In assay [2], the binding result is “binds”.

B2: 5–1 antigen-binding fragment (Fab) (Fab, V domains shown)
VH: B1 VH
VL: B1 VL
Consider B2, for which, in assay [3], the stoichiometry N (as a rule, the number of molecules, sites or subunits per partner or assembly) was found to be 3 Fabs per trimer.
